From patent publication US20250051443A1 (NATIONAL RESEARCH COUNCIL OF CANADA, published 2025)
Positions count from the first letter of the chain named. Where two headings read alike, the source gives them in different places. Values belong to the molecule of their own block, whether it stands above or below them.

Columns and labels:
human CD3 [1] = molecular target: T1, human CD3 (human, UniProt P07766 23-207; P09693 23-182; P04234 22-171); assay: flow cytometry, AF488-labeled mAb on CD3+ Jurkat cells
human CD3 [2] = molecular target: T1, human CD3; assay: flow competition on Jurkat, 100 nM unlabeled mAb; competitor AF488-SP34.2 20 nM
Procedure: (§1) In order to evaluate whether anti-CD3 monoclonal antibodies bind to the same epitope region, flow cytometry competition experiments on Jurkat cells were performed.
(§2) To that effect, a fixed concentration of the indicated AF488-labeled mAb were incubated with 100 nM of unlabeled monoclonal antibodies to assess if their binding capacity was impaired in presence of unlabeled mAbs. […] The AF488-OKT3 mIgG2b was labeled in-house using AlexaFluor488 protein labelling kit (Invitrogen #A10235) following manufacturer's instruction. The free dye removal step was done using Zeba™ Spin Desalting Columns, 7K MWCO (Thermo Scientific #89890). The final product was analyzed by UPLC-SEC to ensure the integrity of the labeled mAb.

human CD3 [3] = molecular target: T1, human CD3; assay: flow competition on Jurkat, 100 nM unlabeled mAb; competitor AF488-UCHT1 5 nM (self)
human CD3 [4] = molecular target: T1, human CD3; assay: flow competition on Jurkat, 100 nM unlabeled mAb; competitor AF488-SK7 1.5 nM
Procedure: as §1, §2

human CD3 [5] = molecular target: T1, human CD3; assay: flow competition on Jurkat, 100 nM unlabeled mAb; competitor AF488-UCHT1 5 nM
Procedure: as §1, §2

human CD3 [6] = molecular target: T1, human CD3; assay: apparent KD (KDapp), flow cytometry titration on purified primary human T cells
Procedure: The binding characteristics of the purified anti-CD3 mAbs were assessed in titration studies on purified human primary T cells from different donor samples. Fresh ex vivo peripheral blood mononuclear cells (PBMCs) were obtained via density centrifugation over Ficoll-Paque using standard procedures and untouched T cell fractions obtained from PBMCs by negative pan-T cell selection and magnetic cell sorting. Starting from 300 nM concentrations of the anti-CD3 mAbs, eight point binding curves were generated from the resultant mean fluorescence intensity (MFI) values obtained through detection of labelled secondary antibody to bound CD3 in flow cytometry experiments (FIGS. 3A and 3B). Both commercial mouse anti-human CD3 mAb (OKT-3; Biolegend) and an in house generated IgG1 version of OKT-3 were employed as positive controls together with a non-specific mouse IgG serving as a negative binding control. Following curve fit analysis using one-site specific binding with Hill slope, the KDapp (concentration needed to achieve a half-maximum binding at equilibrium) for each mAb was calculated (Table 2).
Eight point binding titrations were performed with the anti-CD3 mAbs starting at either 300 or 100 nM on freshly purified human T cells obtained through negative selection from PBMC fractions. Briefly, 1×10⁵ human T cells (50 μL of staining buffer (SB; PBS/1% BSA/0.01% NaN3) were incubated with graded dilutions of the anti-CD3 mAbs in SB ([…]) for 2 hours at 4° C. in 96 w U-bottom plates, followed by plate washing with SB ([…]). Cell pellets were resuspended with 25 μL of a 0.25 mg/mL solution of the goat (Fab′)₂ anti-mouse IgG (H+L)− APC secondary antibody in SB, incubated at 4° C. (30 min.), washed 1× with SB, and resuspended for flow analysis. Recombinant anti-human OKT-3 IgG2b (in house produced) and non-specific mIgG were employed similarly as positive and negative controls respectively. 10K live events were acquired on a BD LSRFortessa flow analyzer and mean fluorescence intensities (MFI) calculated after subtraction of secondary antibody alone values. Using GraphPad Prism software, the data were analyzed using a one site specific binding with Hill slope non-linear regression model to calculate KDapp and BMax values (See Table 2).

human CD3 [7] = molecular target: T1, human CD3; assay: flow competition on Jurkat, 100 nM unlabeled mAb; competitor AF488-OKT-3 mIgG2b 1.5 nM (self)
human CD3 [8] = molecular target: T1, human CD3; assay: cell-based or functional assay
human CD3 [9] = molecular target: T1, human CD3; assay: apparent KD (KDapp), flow cytometry titration on Jurkat cells
Procedure: Unless otherwise stated, all media are kept are 4° C. and all incubations are performed on wet ice. Exponentially growing Jurkat cells were centrifuged and resuspended in complete medium at a cell density of 2×10⁶ cells/mL. Fifty μL/well of cells were distributed in a polypropylene v-bottom 96 well plate and serial 1/3 dilutions of purified mAbs starting at 300 nM were added and incubated for 2 hours. Cells were washed twice by centrifugation and further incubated with a FITC labeled F(ab′)2 goat anti-mouse antibody (Fc specific, #115-096-071, Jackson Immunoresearch, Cedarlane, Burlington, ON) for an hour. Cells were washed and re-suspended in medium containing Propidium iodide to exclude dead cells from analysis. Samples were filtered through a 60 μm nylon mesh filter plate (Millipore, Ireland) to remove cell aggregates. Flow cytometry analyses were performed on 2,000 viable single-cells events gated on forward scattering, side scattering parameters and propidium iodide dye exclusion using a BD-LSRFortessa flow cytometer (Becton-Dickinson Biosciences, CA, USA) and a standard filter set using BD FACSDiva™ acquisition software, according to manufacturer's instructions.

human CD3 [10] = molecular target: T1, human CD3; assay: flow competition on Jurkat, 100 nM unlabeled mAb; competitor AF488-SK7 1.5 nM (self)
human CD3 [11] = molecular target: T1, human CD3; assay: flow cytometry, negative control on CD3+ Jurkat cells
human CD3 [12] = molecular target: T1, human CD3; assay: flow competition on Jurkat, 100 nM unlabeled mAb; competitor AF488-SP34.2 20 nM (self)
Cynomolgus CD3 = molecular target: T2, Cynomolgus CD3 (Cynomolgus, UniProt Q95LI5 22-198; Q95LI7 23-181; Q95LI8 22-171); assay: apparent KD (KDapp), flow cytometry titration on cynomolgus HSC-F T cell line
T2 construct: whole, on cells; also called CD3 on Cynomolgus PBMCs; CD3 on HSC-F Cynomolgus T cell line
Procedure: To characterize potential cross-reactivity of the anti-human CD3 mAbs to NHP T cells, dose response flow cytometry titration studies were performed on both freshly obtained Cynomolgus PBMCs (Comparative Medicine and Animal Resources Centre—McGill University) or the Cynomolgus derived T cell line, HSC-F (Non-Human Primate Reagent Resource—NIH). Binding studies on fresh Cynomolgus PBMCs was performed on a subset of anti-CD3 mAbs (FIG. 4) whereas the Herpesvirus saimiri immortalized Cynomolgus T cell line HSC-F was employed for further evaluations (FIGS. 5A to 5C). KDapp values were calculated using a non-linear regression model of one-site binding with Hill slope (GraphPad Prism) and tabulated (Table 3b). Similar KDapp values for anti-CD3 mAb 1E2 obtained from binding to fresh Cynomolgus PBMCs (KDapp=0.28 nM) or the HSC-F T cell line (KDapp=0.39 nM) indicated the HSC-F cell line was a suitable surrogate for ex vivo NHP T cells.
HSC-F T cells obtained from the Non-Human Primate Reagent Resource (NIH) were maintained in culture in RPMI media containing 20% FBS and 40 IU/mL recombinant human IL2. 100K HSC-F cells in logarithmic cell growth were treated with graded doses of the anti-CD3 mAbs starting at 100 nM in staining buffer (SB; PBS/1% BSA/0.01% NaN3) for 2 hours at 4° C. in 96 w V-bottom plates. Following plate washing with SB, the cell pellets were resuspended with 25 μL of goat (Fab′)₂ anti-mouse IgG (H+L)− APC secondary antibody (final 5 μg/mL), incubated for 30 minutes at 4° C., followed by flow cytometry analysis. The commercial NHP cross-reactive SP34.2 anti-CD3 mAb (BD Biosciences), recombinant anti-human OKT-3 IgG2b (in house produced) and non-specific mIgG were employed as controls. 20K live events were acquired on a BD LSRFortessa flow analyzer and mean fluorescence intensities (MFI) calculated after subtraction of secondary antibody alone values. Using GraphPad Prism software, the data were analyzed using a one site specific binding with Hill slope non-linear regression model to calculate KDapp and BMax values (See Table 2).

human CD3 [13] = molecular target: T1, human CD3; assay: apparent KD (KDapp), flow cytometry titration of the AF488-labeled mAb on Jurkat cells
human CD3 [14] = molecular target: T1, human CD3; assay: cell-based or functional assay; remark: listed apart in the source
human CD3 [15] = molecular target: T1, human CD3; assay: flow competition on Jurkat, 100 nM unlabeled mAb; competitor AF488-OKT-3 mIgG2b 1.5 nM
Procedure: as §1, §2

human CD3 [16] = molecular target: T1, human CD3; assay: flow cytometry, hybridoma supernatant on CD3+ Jurkat cells
Procedure: Cells were stained with either negative control mouse IgG (Jackson Immunoresearch cat #115-000-003) or an anti-GFP 3E6 mAb supernatant or tested hybridoma supernatant. Specific binding was reflected by the increase in the mean fluorescent intensity of antibody binding to Jurkat T-cells (FIGS. 1A to 1F, grey histograms) compared to the Jurkat CD3 negative cell line J.RT3-T3.5 (FIGS. 1A to 1F, open histograms). AF488 labeled positive control mAb OKT3 was also analyzed.

% residual fluorescence of labeled mAb (human CD3 [2]): 26%
% residual fluorescence of labeled mAb (human CD3 [5]): 11%
Kd (human CD3 [6]): 0.03 nM
% residual fluorescence of labeled mAb (human CD3 [4]): 6%
% residual fluorescence of labeled mAb (human CD3 [7]): 8%
% max ref. OKT3 (dTomato activation) (human CD3 [8]): 105%
EC50 of dTomato induction (CD69 promoter), Jurkat-CD69-dTomato cells, 24 h (human CD3 [8]): 0.17 µg/mL
IC50, indirect ADC surrogate growth inhibition (anti-mouse-DM1) on Jurkat cells (human CD3 [8]): 0.057 nM
Span, indirect ADC surrogate growth inhibition on Jurkat cells (human CD3 [8]): 91%
Kd (human CD3 [9]): 0.13 to 0.23 nM
Molecule: recombinant mouse IgG2b OKT-3 produced in-house (antibody)

% residual fluorescence of labeled mAb (human CD3 [2]): 58%
MFI (human CD3 [1]): 311 MFI
% residual fluorescence of labeled mAb (human CD3 [10]): 9%
% residual fluorescence of labeled mAb (human CD3 [5]): 14%
Molecule: SK7 (antibody)

% max ref. OKT3 (dTomato activation) (human CD3 [14]): 60%
EC50 of dTomato induction (CD69 promoter), Jurkat-CD69-dTomato cells, 24 h (human CD3 [14]): 0.23 µg/mL
% residual fluorescence of labeled mAb (human CD3 [2]): 32%
% residual fluorescence of labeled mAb (human CD3 [15]): 94%
Kd (Cynomolgus CD3): 2 nM
% residual fluorescence of labeled mAb (human CD3 [5]): 80%
MFI (human CD3 [16]): 143 MFI
Kd (human CD3 [6]): 30.1 nM
% residual fluorescence of labeled mAb (human CD3 [4]): 56%
Kd (human CD3 [9]): 3.7 nM
B1: F332-10B6 (antibody, mouse IgG2a, V domains shown)
VH: QVQLQQPGAELGKPGTSVNLSCKASGYTFTDYWIHWVKQRPGQGLEWIGNINPNSGDTNYNENFKTKATLTVDRSSSTAYMQLSSLTSEDSAVYYCTRDISGQYYFDFWGQGTTLTVSS
VL: DIVMSQSPSSLAVSAGEKVTMSCKSSQSLLNSRTRKNYLAWYQQKPGQSPKLLIYWASTRESGVPDRFTGSGSGTDFTLTISSVQAEDLAVYYCIQSYNLRTFGGGTKLEIK
notes: also called F332-10B6-2; F332-12B5-1

% max ref. OKT3 (dTomato activation) (human CD3 [14]): 90%
EC50 of dTomato induction (CD69 promoter), Jurkat-CD69-dTomato cells, 24 h (human CD3 [14]): 0.47 µg/mL
% residual fluorescence of labeled mAb (human CD3 [2]): 8%
% residual fluorescence of labeled mAb (human CD3 [15]): 79%
Kd (Cynomolgus CD3): 0.64 nM
% residual fluorescence of labeled mAb (human CD3 [5]): 72%
MFI (human CD3 [16]): 373 MFI
Kd (human CD3 [6]): 0.05 nM
% residual fluorescence of labeled mAb (human CD3 [4]): 43%
Kd (human CD3 [9]): 0.6 nM
B2: F332-13B4 (antibody, mouse IgG2a, V domains shown)
VH: QVQLQQSGPELVKPGASVKISCKASGYSFTNSYVHWVKQTPGQGLEWIGWIYPGSTNIKYNEKFKGKATLTADTSSSTVYMQLSSLTSEDSAVYFCARDGSYFFDYWGQGTTLTVSS
VL: B1 VL with S22T, I95K, N99I
notes: also called F332-13B4-2

Continued, molecule first:

Molecule: OKT-3 AF488 (antibody)
MFI (human CD3 [1]): 265 MFI

Molecule: UCHT1 (antibody)
% residual fluorescence of labeled mAb (human CD3 [2]): 54%
MFI (human CD3 [1]): 293 MFI
% residual fluorescence of labeled mAb (human CD3 [3]): 8%
% residual fluorescence of labeled mAb (human CD3 [4]): 7%

Molecule: Mouse IgG (antibody)
MFI (human CD3 [11]): 34 MFI

Molecule: SP34.2 (antibody)
% residual fluorescence of labeled mAb (human CD3 [12]): 10%
Kd (Cynomolgus CD3): 1.29 nM
% residual fluorescence of labeled mAb (human CD3 [5]): 49%
Kd (human CD3 [6]): 1.77 nM
% residual fluorescence of labeled mAb (human CD3 [4]): 29%
Kd (human CD3 [13]): 10.8 nM
